This note sets out measurements from patent US20040116653A1.

This assay addresses human CD4 on cells (MT-2, MT-4 cells; mouse SR.hCD4 cells transfected with human CD4) (human) (UniProt P01730). The assay is described as follows: cell-based or functional assay.

“synthetic soluble multiple-branched peptide (MBP) corresponding to amino acids 51-74 of CD38 (CD3851-74 MBP)” returned an EC50, inhibition of HIV-1IIIB infection of MT-4 cells (p24 ELISA, day 3) of 12 nM and an EC90, inhibition of HIV-1IIIB infection of MT-4 cells (p24 ELISA, day 3) of 75 nM.
